Reference: the supplement of paper PMC12667976

B1: library; numbered along this chain (parent)
chain: MATDAALRRLLRLHRTEIAVAVDSAFPLLHALADHDVVPEDKFQETLHLKEKEGCPQAFHALLSWLLTQDSTAILDFWRVLFKDYNLERYGRLQPILDSFPKDVDLSQPRKGRKPPAVPKALVPPPRLPTKRKASEEARAAAPAALTPRGTASPGSQLKAKPPKKPESSAEQQRLPLGNGIQTMSASVQRAVAMSSGDVPGARGAVEGILIQQVFESGGSKKCIQVGGEFYTPSKFEDSGSGKNKARSSSGPKPLVRAKGAQGAAPGGGEARLGQQGSVPAPLALPSDPQLHQKNEDECAVCRDGGELICCDGCPRAFHLACLSPPLREIPSGTWRCSSCLQATVQEVQPRAEEPRPQEPPVETPLPPGLRSAGEEVRGPPGEPLAGMDTTLVYKHLPAPPSAAPLPGLDSSALHPLLCVGPEGQQNLAPGARCGVCGDGTDVLRCTHCAAAFHWRCHFPAGTSRPGTGLRCRSCSGDVTPAPVEGVLAPSPARLAPGPAKDDTASHEPALHRDDLESLLSEHTFDGILQWAIQSMARPAAPFPS

Variants of: B1
Assay: AIRE transcriptional activation functional score (insulin promoter-GFP; nonsense median 0, synonymous median 1) (normalised score); higher = higher AIRE activity (more reporter activation)
Details: with insulin promoter-GFP reporter in HEK293
Experimental: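 Deep mutational scan of full-length human AIRE (codon-optimized cDNA, DT-POPCode NNN libraries over three regions) integrated at a Bxb1 landing pad in HEK293 cells carrying an insulin core promoter-GFP reporter at a Flp-In site. Cells were sorted for the top 10% GFP about 14 days after transfection. Variant frequency log-ratios (select vs non-select, TileSeq) were rescaled so that the nonsense median is 0 and the synonymous median is 1, then averaged over biological replicates.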

AIRE transcriptional activation functional score, by site and new letter:
C299: N 0.262 | T 0.711 | D 0.505 | V 0.501 | L 0.726 | Y 0.416 | S 0.703 | R 0.523 | M 0.737 | K 0.668 | I 0.55 | E 0.32 | W 0.647 | G 0.55 | Q 0.508 | P 0.634 | F 0.664 | H 0.488 | A 0.615
D288: E 0.565 | M 1.31 | S 1.24 | R 1.08 | V 1.14 | C 1.26 | H 0.855 | I 1.38 | W 1.59 | L 1.19 | N 0.786 | F 1.5 | A 1.19 | Y 1.23 | Q 0.949 | T 0.903 | P 1.15 | G 1.14 | K 0.535
D297: S 0.838 | Y 0.771 | E 0.884 | M 0.682 | W 0.671 | R 0.34 | H 0.894 | V 0.909 | N 0.25 | I 0.487 | T 0.153 | P 1.29 | C 0.929 | Q 1.32 | L 0.697 | F 0.8 | G 0.852 | K 1.49 | A 0.963
A300: G 0.768 | P 1.05 | E 0.84 | H 0.907 | Q 0.413 | V 1.09 | T 0.981 | I 1.11 | S 0.968 | C 1.39 | Y 0.856 | F 1.57 | D 1.26 | K 1.08 | L 0.917 | W 1.22 | N 0.883 | R 1.14
Q293: Y 0.958 | M 0.829 | K 1.16 | N 0.746 | V 0.932 | S 0.559 | A 0.738 | D 0.479 | G 1 | T -0.386 | F 1.1 | I 0.523 | L 1.08 | P 0.602 | R 0.982 | H 1.18 | W 1.35 | C 0.906 | E 1.33
Q290: A 0.939 | K 0.932 | M 1.27 | Y 1.48 | P 0.267 | G 1.02 | S 0.97 | C 0.819 | I 0.465 | W 1.1 | F 1.21 | R 1.2 | N 1.19 | L 0.646 | T 0.55 | V 1.04 | H 0.981 | E 0.67
K294: Y 0.634 | C 1 | H 0.554 | G 0.728 | A 0.459 | F 0.447 | W -0.487 | R 1.17 | S 0.706 | N 0.937 | Q 1.43 | I 0.609 | E 0.357 | M 0.969 | P 1.21 | T 0.822 | V 0.546 | L 0.857
N295: I 0.856 | R 0.795 | L 1.17 | D 0.921 | P 1.05 | Q 0.995 | V 1.09 | E 1.27 | C 1.01 | T 1.14 | F 0.892 | W 0.869 | Y 1.08 | K 1.03 | G 0.969 | S 0.92 | M -0.37 | H 0.879 | A 0.906
C302: I 0.572 | R 0.411 | Q 0.705 | H 0.701 | D 0.537 | E 0.654 | L 0.555 | S 0.665 | W 0.72 | K 0.3 | V 0.651 | Y 0.467 | N 0.531 | F 0.63 | A 0.669 | G 0.54 | P 0.251 | T 0.263
H292: P 0.865 | N 1.03 | W 1.03 | Q 0.508 | K 0.992 | R 0.856 | Y 0.957 | A 0.816 | C 0.815 | V 0.936 | T 1.13 | I 0.603 | G 1.12 | F 0.915 | M 1.7 | E -0.172 | L 0.55 | S 0.599 | D 0.892
L291: R 0.656 | K 0.675 | M 1.29 | A 0.566 | Y 1.69 | N 0.0689 | G 1.06 | V 1.03 | F 1.15 | H 0.333 | Q 0.902 | P 1.26 | W 0.706 | T 0.708 | I 0.864 | E 0.759 | D 0.351 | C 1.01 | S 1.1
S287: P 0.464 | L 1.38 | V 0.972 | R 1.04 | H 0.964 | Y 1.17 | T 1.44 | N 1.13 | W 1.12 | K 0.385 | Q 1.24 | M 1.29 | I 1.07
G305: E 0.782 | A 0.453 | C 1.06 | D 1.1 | F 0.497
P289: W 1.43 | L 0.891 | K 1.39 | R 1.19 | C 1.08 | Q 0.942 | T 1.37 | N 0.167 | A 0.95 | F 0.919 | V 1.09 | G 1.14 | D -0.468 | E 0.531 | M 1.35 | H 1.22 | S 1.3
E296: Y 0.486 | A 0.699 | V 0.556 | M 1.14 | G 1.03 | L 0.781 | N 1.28 | T 0.948 | K 0.642 | C 0.394 | W 1.44 | P 0.799 | D 0.711 | H 1.76 | F 1.09 | R 0.658 | I 0.711 | Q 1.06 | S 0.991
V301: P 0.662 | K 1.09 | S 1 | E 1.05 | W 2 | Q 1.08 | Y 1.14 | D 0.644 | F 1.29 | L 1.01 | I 0.84 | G 1.08 | R 1.34 | M 0.84 | H 1.56 | C 1.08 | A 1.01 | T 0.963 | N 0.743
D304: P 0.387 | A 0.858 | I 0.384 | M 1.31 | E 0.883 | W 1.21 | H 1.13 | F 0.0957 | T 1.15 | Y 0.808 | R 0.879 | L 0.299 | C 1.29 | V 0.99 | S 1.42 | G 0.56 | K 1.11 | N 0.503
E298: V 0.91 | P 0.696 | K 1.07 | A 0.0161 | T 0.228 | N 1.56 | I 1.03 | W 1.13 | H -2.02 | M 0.204 | S 0.818 | Q 1.15 | Y 0.785 | R 0.634 | C -0.0529 | G 1.13 | D 0.987 | F 0.727 | L 0.839
R303: D 0.544 | G 1.34 | E 0.933 | A 0.349 | I 1.32 | H 1.12 | V 1.16 | T 1.36 | Q 1.23 | F 1.47 | C 1.23 | L 1.12 | K 1.13 | N 1.04 | P 1.09 | S 0.997 | W 1.02 | M 1.28 | Y 0.774
